The assay deals with human immune complexes (ICs): heat-aggregated human IgG (human).

The substance “Fcγ receptor 2a (FcγRIIA), human, on human platelets (from UniProt P12318 34-317)” gave a neutrophil adhesion on IC-coated microcapillaries with adhered platelets at 2 dyn/cm^2; neutrophils preincubated with a blocking antibody against FcγRIIA; inhibition against the isotype control (% inhibition of neutrophil adhesion) of 86.3.
“FcγRIIIB, human, on neutrophils (from UniProt O75015 17-200) (receptor)” had a neutrophil adhesion on IC-coated microcapillaries with adhered platelets at 2 dyn/cm^2; neutrophils preincubated with a blocking antibody against FcγRIIIB; inhibition against the isotype control (% inhibition of neutrophil adhesion) of 63.8.

The values above are taken from publication PMC12867151.
